{
  "source": "patent CN116744966A",
  "about": "(WISTAR INST; WEINER DAVID; MUTHUMANI KARTHIK; PARZACCHI …, dated 2023)",
  "key": {"[1]": {"target": "SARS-CoV-2 spike protein (wild type) on pseudovirus (SARS-CoV-2, UniProt P0DTC2 14-1273)", "assay": "cell-based or functional assay"}, "[2]": {"target": "recombinant SARS-CoV-2-RBD (Sino Biological) (SARS-CoV-2, UniProt P0DTC2 319-541)"}},
  "data": [
    {"binder": "WCoVA7 (antibody, V domains shown) VH: EVKLLESGGGLVQPGGSLKLSCAASGFDFSRYWMSWVRQAPGKGLEWIGEINPDSSTINYTPSLKDKFIISRDNAKNTLYLQMSKVRSEDTALYYCARIYYGSPGAMDYWGQGTSVTVSS VL: SIVMTQTPKFLLVSAGDRVTITCKASQSVSNDVAWYQQKPGQSPKLLIYYASNRYTGVPDRFTGSGYGTDFTFTISTVQAEDLAVYFCQQDYFSPYTFGGGTKLEIK", "values": [
      {"measurement": "IC50, pseudovirus neutralisation (CHO-ACE2 cells, luciferase)", "setting": "[1]", "value": 2.6, "unit": "ng/mL"}
    ]},
    {"binder": "WCoVA9 (antibody, V domains shown) VH: EVQLQQSGAELVKPGASVKLSCTASGFNIKDTYMHWVKQRPEQGLEWIGRIDPANGNTKYDPKFQAKATITANTSSNTAYLHLSSLTSEDTAVYYCAPYYDYVGAMDYWGQGTSVTVSS VL: DIQMTQSPASQSASLGESVTITCLASQTIGTWLAWYQQKPGKSPQLLIYAATSLADGVPSRFSGSGSGTKFSFKISSLQAEDFVSYYCQQLYNTPLTFGGGTKLEIK", "values": [
      {"measurement": "IC50, pseudovirus neutralisation (CHO-ACE2 cells, luciferase)", "setting": "[1]", "value": 4.9, "unit": "ng/mL"},
      {"measurement": "Kd", "setting": "[2]", "value": "< 1", "unit": "nM"}
    ]}
  ]
}
